Measured values published in article PMC3026963 (The Biochemical journal, 2010).

Target: protein kinase CK2 catalytic subunit α (human, UniProt P68400 1-391)
Assay: SEC

Chain of protein kinase CK2 catalytic subunit α (P68400 whole entry): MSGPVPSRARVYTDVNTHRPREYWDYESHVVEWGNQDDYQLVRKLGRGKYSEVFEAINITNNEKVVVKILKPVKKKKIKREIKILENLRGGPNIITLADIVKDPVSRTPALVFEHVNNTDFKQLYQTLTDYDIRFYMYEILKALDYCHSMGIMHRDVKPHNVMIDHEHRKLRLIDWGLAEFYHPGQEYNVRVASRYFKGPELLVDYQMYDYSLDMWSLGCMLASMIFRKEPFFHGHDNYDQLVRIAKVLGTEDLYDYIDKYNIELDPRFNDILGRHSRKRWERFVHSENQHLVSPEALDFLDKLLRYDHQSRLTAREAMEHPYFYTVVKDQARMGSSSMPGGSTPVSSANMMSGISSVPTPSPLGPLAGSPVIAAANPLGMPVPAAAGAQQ

binding result: binds
B1: protein kinase CK2 non-catalytic subunit β (natural protein)
chain: not shown
